# US11685791B2, “Antibody binding specifically to N-terminal region of lysyl-tRNA synthetase exposed on cell membrane” (Zymedi Co., Ltd., priority 2017, dated 2023)
# B1: N3 IgG: IgG converted from N3 scFv; VH SEQ ID NO: 49, VL SEQ ID NO: 51; binds KRS N-terminal region (antibody, V domains shown)
# VH: EVQLLESGGGLVQPGGSLRLSCAASGFTFSSYDMSWVRQAPGKGLEWVSAISYDNGNTYYADSVKGRFTISRDNSKNTLYLQMNSLRAEDTAVYYSARMALDFDYWGQGTLVTVSS
# VL: QSVLTQPPSASGTPGQRVTISCTGSSSNIGSNYVTWYQQLPGTAPKLLIYDNSNRPSGVPDRFSGSKSGTSASLAISGLRSEDEADYYCASWDDSLSAYVFGGGTKLTVL
# How the values were obtained:
# [1] = tested on: human KRS N-terminal peptide fragments (F1-F5); experiment: SPR (Biacore T200) of immobilized N3 IgG against human KRS N-terminal peptide fragments; format: binding
# Description: First, N3 IgG antibody was immobilized to Biacore T200 (GE Healthcare) equipped with Series S sensor chip CM5 (GE Healthcare) by using an amine coupling kit (GE Healthcare). Then, the peptides shown in Table 4 below dissolved in PBS solution at corresponding concentrations were allowed to flow for 60 s. Then, PBS was allowed to flow for 5 min. Then, the binding ability was analyzed by Biacore T200 Evaluation software v2.0 (GE Healthcare).
# [2] = target: T1, extracellularly exposed KRS N-terminal region (Homo sapiens, UniProt Q15046); experiment: Immunofluorescence staining of converted IgGs; format: cell-based; conditions: WT-KRS membrane localization induced by laminin treatment
# T1 construct: expressed in transfected cells; host or cells: A549
# T1 sequence (Q15046 whole entry): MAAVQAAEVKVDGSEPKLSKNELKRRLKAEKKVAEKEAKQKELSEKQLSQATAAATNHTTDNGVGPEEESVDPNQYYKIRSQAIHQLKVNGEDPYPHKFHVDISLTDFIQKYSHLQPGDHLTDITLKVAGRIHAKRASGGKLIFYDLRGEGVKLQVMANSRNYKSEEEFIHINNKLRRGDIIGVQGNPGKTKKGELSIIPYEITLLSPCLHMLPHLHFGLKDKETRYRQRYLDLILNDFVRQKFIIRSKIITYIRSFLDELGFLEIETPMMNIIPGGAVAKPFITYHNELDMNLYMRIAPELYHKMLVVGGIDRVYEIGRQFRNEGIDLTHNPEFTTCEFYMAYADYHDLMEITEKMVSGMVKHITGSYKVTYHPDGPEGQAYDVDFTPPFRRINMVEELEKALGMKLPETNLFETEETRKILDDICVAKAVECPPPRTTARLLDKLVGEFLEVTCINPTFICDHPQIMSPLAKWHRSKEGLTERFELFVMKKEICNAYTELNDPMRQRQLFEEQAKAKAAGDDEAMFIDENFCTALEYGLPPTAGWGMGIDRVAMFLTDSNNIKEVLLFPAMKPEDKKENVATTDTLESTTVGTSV
# Description: (§1) Immunofluorescence was performed to investigate whether the scFv clones selected in Example <1-5> actually bound to the KRS N-terminal region exposed on the cell membrane. In order to make a phenomenon in which KRS is exposed on the membrane, KRS-T52D mutant (active mutant) was used. […] After incubation for 24 h, the cells were incubated using serum-free media (RPMI 1640 media) at 37° C. for 1 h. Thereafter, the cells were treated with 10 μg/ml laminin (L2020; Sigma) and then incubated at 37° C. for 1 h.
# (§2) The prepared samples were washed with PBS (4° C.), fixed by the treatment with 4% paraformaldehyde for 10 min, and then washed. The samples were blocked with CAS block for 10 min, and treated with the scFv and Myc antibodies for 2 h. Thereafter, the unbound antibodies were washed out, and incubated with secondary antibodies for 1 h in a dark room. DAPI staining was performed for 10 min before mounting.
# (§3) To investigate whether the IgGs constructed in the present invention actually bound to the region of KRS exposed on the cell membrane, immunofluorescence was performed. Immunofluorescence staining was performed by the same method as described in Example <1-6> by using N3 IgG and N5 IgG as representatives.
# [3] = target: T2, extracellularly exposed KRS N-terminal region (Homo sapiens, UniProt Q15046, T52D); experiment: Immunofluorescence staining of converted IgGs; format: cell-based; conditions: T52D-KRS (active mutant, myc tagged KRS)
# T2 construct: expressed in transfected cells; host or cells: A549
# T2 sequence (Q15046 whole entry T52D): as the sequence (Q15046 whole entry) above, with T52D counted along it
# Description: as §1, §2, §3
# [4] = tested on: mouse breast cancer 4T-1 cells; experiment: In-vivo cancer metastasis model (lung metastasis)
# Description: Since KRS can accelerate cell migration through 67LR associated with cancer metastasis, tumor (cancer) animal models were constructed using mouse breast cancer 4T-1 cells (Korean Cell Line Bank), which are well metastasizable to the lung. Orthotopic breast cancer animal models were constructed by injecting 4×10^4 4 T1 cells into the fat pad of six 7-week old BALB/cAnCr mice (Doo Yeol Biotech).
# The cancer was injected into the mammary fat pad, and after 10 days (Day 10), cancer tissues were resected from the fat pad. After one day (Day 11), N3 IgG (10 mg/kg) was administered twice a week for two weeks at intervals of 3 days (a total of four times, Days 11, 14, 18, and 21) via tail vein i.v. injection, and the same dose of control mock IgG (Thermo #31154) was also administered. One week after the completion of the entire antibody dosing schedule, that is, 28 days after cancer injection, the mice were sacrificed to take lung tissue. Upon autopsy of lung tissue, the lung was inflated by injection of a saline solution into the bronchus through a syringe, collected, and then stored in Bouin's solution (Sigma #HT10132) for 24 h. Thereafter, the metastasis nodules in each lobe of the lung were counted through a microscope.
# It has been known in the foregoing literature “Dae Gyu Kim et al., (2014)” that the YH16899 compound has an effect on cancer metastasis inhibition by suppressing the interaction between 67LR and KRS. Then, the cancer metastasis inhibitory effect was compared between YH16899 and N3 IgG, the antibody of the present invention. The construction of in-vivo tumor models and the observation of lung metastasis condition were carried out by the same method as in Example <3-3>. YH16899 was orally administered at 100 mpk every day. N3 IgG was intravenously injected at difference concentrations (1 mpk, 10 mpk) through mouse tails.
# [5] = tested on: pulmonary arterial hypertension (PAH) models; experiment: Blood pressure and cardiac output in monocrotaline PAH model; format: in vivo, rat; conditions: for CO / LVEDP / LVESP / RVEDP / RVESP: i.v. twice a week, 3 weeks, n = 5
# Description: After three weeks, the rats were anesthetized with isoflurane, and measured for blood flow and pressure by using a high-precision pneumatic measurement system (MPVS cardiovascular pressure and volume system, model name: MPVS Ultra, manufacturer: Millar Instruments). The right ventricular end-systolic pressure (RVESP), right ventricular end-diastolic pressure, left ventricular end-systolic pressure, left ventricular end-diastolic pressure were measured using an exclusive catheter (Mikro-Tip rat pressure catheter, manufacturer: Millar Instruments). The cardiac output was measured using a perivascular blood flow probe (Transonic Flow probes, manufacturer: Millar Instruments), and experimental method thereof was performed by the same method as disclosed in the following literature: Pacher P, Nagayama T, Mukhopadhyay P, Batkai S, Kass D A. Measurement of cardiac function using pressure-volume conductance catheter technique in mice and rats. Nat Protoc 2008; 3(9):1422-34.
# The models of PAH, which is a disease having a close relation between immune cell invasion and pathological phenomena, were treated with N3 IgG antibody (1 mpk or 10 mpk) for 3 weeks (i.v., twice a week), and then measured for right ventricular end-systolic pressure (RVESP), right ventricular end-diastolic pressure (RVEDP), left ventricular end-systolic pressure (LVESP), left ventricular end-diastolic pressure (LVEDP), and cardiac output (CO).
# A549 cells = experiment: Transwell cell migration assay (laminin); format: cell-based, human; conditions: 100 nM or 500 nM, 24 h, laminin-coated Transwell
# Description: Cell migration was measured using a 24-well Transwell chamber with polycarbonate membrane (8.0 μm pore size, Costar) as disclosed in the prior art (Park, S. G. et al., Human lysyl-tRNA synthetase is secreted to trigger pro-inflammatory response, Proc. Natl. Acad. Sci. USA 102, 6356-6361 (2005)). In the Transwell chamber, the lower well was coated with 10 μg of laminin (in gelatin) and dried with UV. Thereafter, A549 cells were suspended in serum-free RPIM media, and then placed at a concentration of 1×10^5 cells per well in the upper chamber. The chamber was treated with N3 IgG or human mock IgG (control) at 100 nM or 500 nM, followed by incubation for 24 h. Thereafter, the chamber was washed twice with PBS, and treated with 70% MeOH (in PBS) for 30 min. The chamber was again washed twice with PBS, and treated with Hematoxylin solution for 30 min. The chamber was washed three times with DW, and the membrane in the chamber was cut and mounted on the slide glass.
# [6] = N3 IgG immobilized, peptides in PBS
molecule,measurement,setting,value
B1,binding to human KRS N-terminal epitopes F1-F5 (SPR),[1]; [6],"bound to epitopes F1, F2, F3, and F4, but not epitope F5"
same,rank of binding ability among human epitopes,[1]; [6],"the binding ability to epitope F4 was strongest, and the binding ability to F3, F2, and F1 was stronger in that order"
same,main binding site in the KRS N-terminal region,[1]; amino acid positions,positions 15 to 29
same,binding to extracellularly exposed KRS N-terminal region (immunofluorescence),[2],favorably bound specifically
same,binding to extracellularly exposed KRS N-terminal region (immunofluorescence),[3],favorably bound
same,lung metastasis nodules,"[4]; 10 mg/kg i.v. twice a week for two weeks, vs mock IgG control",significantly suppressed
same,laminin receptor expression in metastasis nodule sites of lung tissue,"[4]; 10 mg/kg i.v., control vs N3 IgG treatment group",significantly large amount of laminin receptors were expressed in the metastasis nodule sites in control compared with the group treated with the antibody
same,lung nodule count,[4]; 1 mpk and 10 mpk i.v.,significantly reduced in a dose-dependent manner
same,cancer metastasis inhibition compared with YH16899 (100 mpk),[4]; 1 mpk i.v.,significantly inhibited cancer metastasis compared with YH16899
same,change in RVESP,"[5]; 1 mpk and 10 mpk, PAH models",significantly reduced
same,CO,[5]; MCT + N3 Ab 1 mpk,74.0 ± 0.9 mL/min
same,LVEDP,[5]; MCT + N3 Ab 1 mpk,2.6 ± 1.9 mmHg
same,LVESP,[5]; MCT + N3 Ab 1 mpk,95.8 ± 4.8 mmHg
same,RVEDP,[5]; MCT + N3 Ab 1 mpk,1.4 ± 2.2 mmHg
same,RVESP,[5]; MCT + N3 Ab 1 mpk,45.0 ± 8.1 mmHg
same,CO,[5]; MCT + N3 Ab 10 mpk,59.8 ± 12.9 mL/min
same,LVEDP,[5]; MCT + N3 Ab 10 mpk,4.6 ± 3.9 mmHg
same,LVESP,[5]; MCT + N3 Ab 10 mpk,93.4 ± 11.3 mmHg
same,RVEDP,[5]; MCT + N3 Ab 10 mpk,3.8 ± 1.3 mmHg
same,RVESP,[5]; MCT + N3 Ab 10 mpk,41.2 ± 7.7 mmHg
same,change in LVESP,"[5]; PAH models, antibody administered group",significantly increased
same,inhibition of cell migration,A549 cells,significantly inhibited
